The text below walks through data of the nanobody polyreactivity screen of Harvey et al. (2022).

The data set in a line: yeast display, Sf9 membrane polyspecificity reagent, FACS + sequencing; frameworks hold sequencing errors. The method, boiled down: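 A synthetic nanobody library was expressed on Saccharomyces cerevisiae BJ5465 by galactose induction for 36–48 hours. The library was stained for 1 hour at 4 °C with 10% biotinylated, detergent-solubilized Sf9 membrane reagent and enriched with streptavidin microbeads before FACS. Low and high (top ~1%) gates were set on anti-HA fluorescence for expression and streptavidin fluorescence for reagent binding, and each polyreactivity label reflects the gate of origin.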
Consider “QVQLVESGGGLVQAGGSLRLSCAAFGFTFNAYALGWYRQAPGKERELVAGITSSGGGTYYADSVKGRFTISRDNAKNTVYLEMNSLKPEDTAVYYCNTYSYLFSRYGYWGQGTQVTVSS”, for which the “polyreactivity (PSR sort gate)” value is recorded as “high polyreactivity”.
The entry for “QVHLVESGGGLVQAGGSLRLTCAASGLIFYDNMGWYRQAPGKERELVAAISSSGGSTSYADSVKGRFTISRDNAKNTVYLQMTSLKPVDTAVYYCAADSYPAYLGFVGFDYWGKGTQVTVSS” is “low polyreactivity”.
As for “QVQLVASGGGLVQAGGSLRLSCAASGSNFAYNGMGWYRLAPGKERELVAAMSWNGGTTYYADSVKGRFTISRDKAKKNVYLQRNSLKPEDTAVYYCATDSYYFREYDYWGQGTQVTVSS”, the “polyreactivity (PSR sort gate)” value is “low polyreactivity”.
With “QVQLVESGGGLVQAGGSLRLSCAASGYIFSYNAMGWYRQAPGKERELVAAISRTGGSTNYADSVKGRFTISRDNAKNTVYLQMNSLKPEDTAVYYCAKRYRYPSWGEYGYWGQGTQVTVSS” the entry was “high polyreactivity”; with “QVQLVESGGGLVQAGGSLRLSCAASGFTFRRYAMGWYRQAPGKETELVAVITTAGSTNYADSVKGRFTISRDNAKNTVHLQMNSLIPEDTAVYYCATDNGTRKRRYDYWGQGTQVTVSS”, “low polyreactivity”.
With “QVQLVESGGGLVQAGGSLRLSCAASGSTFRYYVMGWYRQAPGKERELVAAISRTGGRTYYADSVKGRFTISRDNAKNTVYLQMNSLKPEDTAVYYCAARNVTTKRYYYWGQGTQVTVSS” the entry was “high polyreactivity”.
With “QVQLVESGGGLVQAGGSLRLSCAASGFTFSDNAMGWYRQAPGKEREFVATIDWSGGSTYYADSVKGRFTISRDNAKNTVYLQMNSLKPDDTAVYYCAATFRYSTSQYLQGYDYWGQGTQVTVSS”, the “polyreactivity (PSR sort gate)” value is on record as “low polyreactivity”.
The entry for “QVQLVESGGGLVQAGGSLRLSCAASGSILDSNAMGWYRQAPGQERELVAAISRSGVSTHYADSVKGRFSISRDNAKNTVYLQMNSLKPEDTAVYYCARTGQSLYSRYYYWGQGTQVTVSS” is “low polyreactivity”; for “QVQLVESGGGLVQAVGSLRLSCAASGFTFGEYDMGSYRHAPGKERELVAAIDSGGSTYYADSVKRRFTISRDNAKNTVYLQMNSLKPEDTALYYCNADSTYDYYELDYDHWGQGTQVTVSS” it is “low polyreactivity”.
With “QVQLVESGGGLVQAGGSLSLSCAASGSIFYYYAMGWYRKAPGKERELVASIRSGGSTNYADSVKGRFTISRDNAKNTVYLQKNSLKPEDTAVYYCAARKFYASSLRYGYWGQCTQVTVSS” the entry was “high polyreactivity”; with “QVQLVESGGRLVQAGGSLRLSCAASGLTLFRYDQGWYRQAPGKERELVAAIDYGGGTYYADSVKGRFTISRDNAKNTVYLQMNSLKPEDTAVYYCAVEPEYKYYEGDYWGQGTQVTVSS”, “low polyreactivity”; with “QVQLVESGGGLVQAGGSLRLSCAASGGTFEYYAMGWDRQAPGKESELVAGITGGGVSTYYADSVKGRFTISRDNAKNPVYLQKNSLKPEDTAVYYSAAAYYQDNFWWYYYWGQGTQVNVSS”, “high polyreactivity”.
With “QVQLVESGGGLVQAGGSLRLSCAASGFIFSYYAMGWYRQAPGKERELVAAINWSGGSTYYADSVKGRFTISRDNAKNTVYLQMNSLKPEDTAVYYCAAYSSWHPYDYWGQGTQVTVSS” the entry was “high polyreactivity”; with “QVQLVESGGGLVQAGGSLRLSCAASGYIFYGYVMGWYRQAPGKERELVAGITYSGGGGTHYADSVKGRFTISRDNAKNTVYLQMNSLKPEDTAVYYCATADPQLNRTYYSYGMDYWGQGTQVTVSS”, “low polyreactivity”; with “QVQLVESGGGLVQAGGSLRLSCAASGSTFQWNAMGWYRQAPGKERELVAAISKSGGRTYYADSVKGRFTISRDFAKNTVYLQRNSLKPDDTAVYYCNALGSLDGRYGYWGQGTQVTVSS”, “high polyreactivity”.
“QVQLVESGGGLVQAGGSLRLSCAASGFIFRWYAMGWYRQAPWKERELVASINTDGDSTYYADSVKGRFTISRDNAKNTVYLQMNSLKPEDTAVYYCAADYVGYWWYTSDNYDYWGQGTQVTVSS”: the “polyreactivity (PSR sort gate)” value is “high polyreactivity”.
The entry for “QVQLVESGGGLVQAGGSLRLSCAASGSTLSYYAMGWYRQAPGKERELVAAISSGGTTNYADSVKGRFTISRDNAKNTVYLQMNSLKPEDTAVYYCAAVRKSWWYSSEYYYWGQGTQVTVSS” is “low polyreactivity”; for “QDQLVESGGGLVQAGGSLRLSCAASGSTFQYYTMGWYRQAPGKERELVAAISGDGGNTYYADSVKGRFTISRDNAKNTVYLQMNRLKPEDTAVYYCNADGLILYDYWGQGTQVTVSW” it is “low polyreactivity”; for “QVQLVESGGGLVQAGGSLRLSCAASGSIFWANAMGWYRQAPGKERELVAAISSSGGGTYYADSVKGRFTISRDNAKNTVYLQMNSLKPVDTAVYYCNKLRLDYYEQGDYWGQGSQVTVSS” it is “high polyreactivity”.
Take “QVQLVESGGGLVQAGGSLRLSCAASGNIFLYYAMGWYRQAPGKERELVADIDASGASTYYADSVKGRFTIARDNAKKTVYLQLNSLTPEDTAVYYCAAEFHWWYAGYDYGYWGQGTQVTVSS”: the “polyreactivity (PSR sort gate)” value is recorded as “low polyreactivity”.
The entry for “QVQLVESGGGLVQAGGSLRLSCAASGRTFSSYAMGWYRQAPGKERELVAAINSGGSTNYADSVKGRFTISRDNAKNTVYLQMNSLKPEDTAVYYCNAVTFWGLGYDYWGQGTQVTVSS” is “low polyreactivity”.
For the sequence “QVQLVESGGGLVQAGGRLRLSCAASGRTFYGYAMGWYRQAPGKEREMVAAITQRGVSTYADSVKGRFTISRDNAKNTVYLQMNSLKQEDTAVYYCAADQIERFRDQTWDFDYWGQGTQVTVSS”, the “polyreactivity (PSR sort gate)” value was “low polyreactivity”.
With “QVQLVESGGGLVQAGGSLRLSCAASGITFYSYAMGWYRQAPGKERELVAGISGGGGTSYADSVKGRFTISRDNAKNTVYLQMNSLKPEDTAVYYCNVYAYTYYYWAFYTEDYWGQGTQVTVSS” the entry was “high polyreactivity”.
With “QVQLVESGGGLVQAGGSLRLSCAASGRIFGVYAMGWYRQAPGKERELVAAIYSGSSTYYADSVKGRFTISRDNAKNTVYLQMNSLKPEDTAVYYCNADTPYWVRWKYDYWGQGTQVTVSS” the entry was “low polyreactivity”.
Consider “QVQLVESGGGLVQAGGSLRLSCAASGRIFSYYAMGWYRQAPGKERELVAAISWSGGSTYYADSVKGRFTISRDNAKNTVYLQMNSLKPEDTAVYYCAAGVHWDRGDYWGQGTQVTVSS”, for which the “polyreactivity (PSR sort gate)” value is “low polyreactivity”.
With “QVQLVESGGGLDQAGGSLRLSCAASGIIFKYYAMGWYRQAPGKERELVAAINYSGGRTYYADSVKGRFTISRDNAKNTVYLQMNSLKPEDTAVYYCAKVPAYADRGKFDYWGQGTQVTVSS” the entry was “high polyreactivity”; with “QVQLVESGGGLVQAGGSLRLSCAASGRIFYPYVMGWYRQAPGKERELVAAISASGGRTYYADSVKGRFTISRDNAKNTVYLQMNSLKPEDTAVYYCAAQGWRYYRTVVPMDYWGQGTQVTVSS”, “low polyreactivity”.
Consider “QVQLVESGGGLVQAGGSLRLSCAASGITFALNAMGWYRQAPGKERELVAAISWSGDSTYYADSVKGRFTISRDNAKNTVYLQMNSLKPEDTAVYYCAAVAYLNWTPHYYWGQGTQVTVSS”, for which the “polyreactivity (PSR sort gate)” value is reported as “low polyreactivity”.
The entry for “QVQLVESGGGLVQAGGSLRLICAASGVNAMGWYRQAPGKEREFVAAITSIGGSTYYADSVKGRFTISRDNAKNSVYLQMNSLKPEDTAVYYCNTDRGPVKVSPLYESWGQGTQVTVSS” is “low polyreactivity”; for “QVQLVESGGGLVQAGGSLRLSCAASGRTFWKYAMGWYRQAPGKERELVAAITSSGGSTYYADSVKGRFTISRDNAKNTVYLQMNSLKPEDTAVYYCAAPGWGLGYNYWGQGTQVTVSS” it is “low polyreactivity”.
